# Reference: patent CN111018977A (DONGGUAN PENGZHI BIOTECHNOLOGY CO LTD, dated 2020)
# Positions count from the first letter of the chain named.
# B1: WT 1-1 (antibody, V domains shown)
# VH: QVQLQQSGTELAKPGASVKFSCKASDYTFSTYWMYWIKQRPGQGLEWIGYINPSTGHTEYNQKFKDKATLTADKSSSTAYMQLNSLTSEDSAVYYCARRYYGPFAMDYWGQGTSVTVSS
# VL: EIFLTQSPAIMSASPGEKVTMTCSASSSVSYAHWYQQKSGTSPKRWIYDSSKIASGIPVRFSGSGSGTSYSLTISSMEAEDAATYYCQNWSTNPYTFGGGTKLEIKR
# B2: WT 1-7 (antibody, V domains shown)
# VH: B1 VH with S30T, I51L
# VL: B1 VL with S27T, I53L
# B3: WT 1-4 (antibody, V domains shown)
# VH: B1 VH with T55S, K63R, R99K
# VL: B1 VL with S27T, S28T, I47L
# Molecular target: T1, CTNI质控品重组抗原 (人心肌肌钙蛋白I, cTnI) (human, UniProt P19429 1-210, limits assumed)
# T1 construct: also called CTNI质控品重组蛋白
# Assay: AMC sensor (biolayer interferometry), antibody immobilised at 10 ug/ml, cTnI QC recombinant protein in serial dilution in PBST
# T1 sequence (P19429 whole entry): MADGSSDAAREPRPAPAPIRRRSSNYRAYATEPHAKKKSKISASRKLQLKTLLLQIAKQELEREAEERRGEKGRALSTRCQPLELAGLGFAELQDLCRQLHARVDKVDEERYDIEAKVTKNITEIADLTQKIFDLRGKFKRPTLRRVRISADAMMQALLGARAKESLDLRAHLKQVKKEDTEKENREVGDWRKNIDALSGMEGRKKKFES
Binder,Kd [nM],koff [s⁻¹],kon [M⁻¹ s⁻¹]
B1,1.43,5.51e-05,38500
B2,0.728,0.000132,182000
B3,1.04,3.9e-05,37500
